Test results from the supplement of paper PMC10899765.

Experiments:
Conditions in all cases: 20 nM; 72 h
MCF10A [1] = experiment: one-nucleolus phenotype percent effect, hitpick validation (relative to siNT 0% and siNOL11 100%); higher = more cells with one nucleolus
Description: (§1)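 Primary screen hits (microRNA mimics) were re-picked and rescreened for nucleolar number in MCF10A cells (hitpick validation; percent effect relative to the siNT and siNOL11/siKIF11 controls). A secondary screen measured nucleolar rRNA biogenesis inhibition: after 72 h of transfection at 20 nM, cells were labelled 1 h with 1 mM 5-EU and nucleolar 5-EU signal was quantified, normalised to siNT (0%) and siPOLR1A (100%). Means are over n=5 (MCF10A) or n=2 (RPE-1, HeLa) biological replicates.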

MCF10A [2] = experiment: one-nucleolus phenotype percent effect (relative to siNT 0% and siNOL11 100%); higher = more cells with one nucleolus (ribosome biogenesis inhibition)
Description: (§2)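 After 72 h, cells were fixed and stained with Hoechst and anti-fibrillarin, and nucleoli per nucleus were counted with CellProfiler. Values are plate-adjusted percent effect for the one-nucleolus and 5+ nucleoli phenotypes, normalised to siNT (0%) and to the positive controls siNOL11 or siKIF11 (100%), as the mean of biological triplicates. Percent viability is the nuclei count relative to siNT.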

MCF10A [3] = experiment: 5+ nucleoli phenotype percent effect, hitpick validation (relative to siNT 0% and siKIF11 100%); higher = more cells with five or more nucleoli
Description: as §1

MCF10A [4] = experiment: nucleolar rRNA biogenesis percent inhibition (5-EU; siNT 0%, siPOLR1A 100%); higher = stronger inhibition of nucleolar rRNA biogenesis
Description: as §1

MCF10A [5] = experiment: 5+ nucleoli phenotype percent effect (relative to siNT 0% and siKIF11 100%); higher = more cells with five or more nucleoli
Description: as §2

MCF10A [6] = experiment: percent viability (nuclei count relative to siNT); higher = more viable cells
Description: as §2

Sequence	one-nucleolus phenotype percent effect (MCF10A [1]) [%]	one-nucleolus phenotype percent effect (MCF10A [2]) [%]	5+ nucleoli phenotype percent effect (MCF10A [3]) [%]	nucleolar rRNA biogenesis percent inhibition (MCF10A [4]) [%]	5+ nucleoli phenotype percent effect (MCF10A [5]) [%]	percent viability (MCF10A [6]) [%]
AAAAGGCAUUGUGGUUUUUG [hsa-miR-548an]	194	137	-8.86	65.7	-52.6	11.6
UGGAGUCCAGGAAUCUGCAUUUU [hsa-miR-1289]	130	78.3	-9.57	68.1	-51.8	20
CGCGCCGGGCCCGGGUU [hsa-miR-3195]	196	82.1	-15.6	51.6	-31.1	19.4
UCAUAGCCCUGUACAAUGCUGCU [hsa-miR-103b]	144	72.9	-15	47.6	-32.5	46.2
UGAAUGGUAAAGCGAUGUCACA [hsa-miR-4790-3p]	78.8	71.6	-2.28	105	-42.5	32.2
CUGGCGGCUGUGUCUUCACAG [hsa-miR-6770-3p]	-1.66	110	1.2	-8.82	-40.2	18.4
GGCUCCUCCUCUCAGGAUGUG [hsa-miR-4268]	-21.2	-15.6	51.9	133	82.4	41.5
GGCUGGGUGCUCUUGUGCAGU [hsa-miR-5589-5p]	92.2	71	21.5	70	-4.52	17.4
CUAGGGGGUUUGCCCUUG [hsa-miR-4278]	151	67.1	-14.3	45.6	-35.5	13.5
UGGUCUGCAAAGAGAUGACUGU [hsa-miR-4527]	151	104	-1.79	67.3	-39.4	12.3
CACCAGGGCAGAGCAGGGCUGA [hsa-miR-6753-5p]	141	68.1	-17.4	91.2	-40	15
UGGCAAGGAAAGAAGAGGAUCA [hsa-miR-6809-5p]	207	115	-2.51	69.8	-45.7	9.15
UAGGAGCUCAACAGAUGCCUGUU [hsa-miR-3139]	181	84.1	-8.78	5.86	-23.5	18.8
GAGCAGGCGAGGCUGGGCUGAA [hsa-miR-4690-5p]	176	70.8	-12.8	101	-41.1	11.1
CAAUGGCACAAACUCAUUCUUGA [hsa-miR-5197-5p]	65.4	71	20.5	16.5	-38.9	22.7
UUUGCAGUAACAGGUGUGAGCA [hsa-miR-6516-5p]	142	80.3	-19.1	48.6	-40.6	23.8
UUUGGGACUGAUCUUGAUGUCU [hsa-miR-3913-5p]	-50.6	-47.3	61	84.5	132	69.2
UUGCACUUGUCUCAGUGA [hsa-miR-4325]	84.2	70.8	3.45	104	-30.4	15.7
UCUGCAGGGUUUGCUUUGAG [hsa-miR-1205]	166	96.8	-13.7	15.8	-53.7	20.5
CCGUCGCCGCCACCCGAGCCG [hsa-miR-1181]	-55.6	-33.1	40.2	86.9	96.7	128
UCUCCCUUGAGGGCACUUU [hsa-miR-4287]	-44.9	-43.1	70	82.1	200	66
AGGAGCUAUCCACUCCAGGUGUCC [hsa-miR-6500-5p]	153	70.9	5.46	61.3	-33	19.2
CUCGGCGCGGGGCGCGGGCUCC [hsa-miR-1469]	158	74.3	-13.8	96.7	-35.5	30
AGGAGCAGUGCCGGCCAAGGCGCC [hsa-miR-6081]	152	81.7	-16.9	57.3	-52.9	22.9
AGAGCAGAAGGAUGAGAU [hsa-miR-4468]	109	66.8	-14.8	102	-43.6	16.5
AAGCAGCUGCCUCUGAGGC [hsa-miR-646]	152	70.7	-14.4	130	-42.6	32.4
GAGCAAUGUAGGUAGACUGUUU [hsa-miR-3908]	166	89.1	-5.96	7.34	-34.4	19.8
AGUGUGGCUUUCUUAGAGC [hsa-miR-644a]	170	93.5	-13.1	101	-48.4	35
ACUGGGGAGCAGAAGGAGAACC [hsa-miR-4667-5p]	107	67.8	9.27	81.2	-15.5	9.07
AAAAGGCGGGAGAAGCCCCA [hsa-miR-4484]	199	92.8	-14.7	69.6	-51.6	12
